Test results reported in US20210284725A1 (Genentech, published 2021).

T1: human IL-33 (His-tagged) (human, UniProt O95760 112-270, limits assumed)
T1 construct: not shown: His tag
T1 sequence (looked up): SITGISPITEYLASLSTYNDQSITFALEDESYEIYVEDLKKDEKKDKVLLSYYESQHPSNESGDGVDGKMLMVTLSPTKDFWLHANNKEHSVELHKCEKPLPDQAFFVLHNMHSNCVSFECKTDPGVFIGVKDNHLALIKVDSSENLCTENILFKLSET

T2: human IL-33 (human, UniProt O95760 112-270, limits assumed)
T2 sequence (looked up): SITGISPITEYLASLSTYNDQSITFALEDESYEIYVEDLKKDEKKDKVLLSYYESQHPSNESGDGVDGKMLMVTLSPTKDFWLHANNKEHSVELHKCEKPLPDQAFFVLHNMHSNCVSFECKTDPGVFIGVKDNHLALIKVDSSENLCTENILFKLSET


Key:
human IL-33 (His-tagged) = target: T1, human IL-33 (His-tagged); assay: SPR Biacore T200, IgG captured on protein A chip, His-tagged human IL-33 analyte, 25 C, n=2; column head prints 'KD (nM)' but the E-notation cells are in M, unit corrected to M
Method: A protein A sensorchip (GE Healthcare) was used following manufacturer provided protocols to capture humanized anti-IL-33 antibodies using a BIACORE® T200 instrument (GE). Antibody binding was measured to human IL-33 (His-tagged) using multi-cycle kinetics. Sensorgrams for binding of IL-33 were recorded using an injection time of 2 min with a flow rate of 30 μl/min, at a temperature of 25° C., and with a running buffer of 10 mM HEPES, pH 7.4, 150 mM NaCl, 3 mM EDTA, and 0.005% TWEEN620. After injection, disassociation of IL-33 from the antibody was monitored for 10 min in running buffer. The surface was regenerated between binding cycles with a 30 μl injection of 10 mM Glycine HCl pH 1.5. After subtraction of a blank which contained running buffer only, sensorgrams observed for cytokine binding to anti-IL-33 antibody were analyzed using a 1:1 Langmuir binding model with software supplied by the manufacturer to calculate the kinetics and binding constants.

human IL-33 = target: T2, human IL-33; assay: cell-based or functional assay

Binder | Kd (human IL-33 (His-tagged)) | IC50 (M), IL-33 neutralization activity, HEK-BLUE IL-33 cells, human IL-33 at 160 pM (human IL-33)
1E1v10 (antibody, human IgG1, V domains shown, Humanized 1E1 variant, human IgG1 backbone, expressed in Expi293F) VH: EVQLVESGGGLVQPGGSLRLSCAASGFTFNNYWMTWVRQAPGKGLEWVASITYTGGGTYYPDSVKGRFTISRDDAKSSLYLQMNSLRAEDTAVYYCTRANYYYNTYGGFPYWGQGTLVTVSS VL: DIQMTQSPSSLSASVGDRVTITCLASEGFSNDLAWYQQKPGKAPKSLIYAASRLQDGVPSRFSGSGSGTDFTLTISSLQPEDFATYFCQQGSKYPLTFGGGTKVEIK | 0.121 nM | –
1E1v15 (antibody, human IgG1, V domains shown, Humanized 1E1 variant, human IgG1 backbone, expressed in Expi293F) VH: EVQLVESGGGLVQPGGSLRLSCAASGFTFNNYWMTWVRQAPGKGLEWVASITYTGGGTYYPDSVKGRFTISRDDAKSSLYLQMNSLRAEDTAVYYCTRANYYYNTYGGFPYWGQGTLVTVSS VL: DIQMTQSPSSLSASVGDRVTITCLASEGFSNDLAWFQQKPGKAPKSLIYAASRLQDGVPSRFSGSGSGTDFTLTISSLQPEDFATYFCQQGSKYPLTFGGGTKVEIK | 0.195 nM | –
1E1v4 (antibody, human IgG1, V domains shown, Humanized 1E1 variant, human IgG1 backbone, expressed in Expi293F) VH: EVQLVESGGGLVQPGGSLRLSCAASGFTFNNYWMTWIRQAPGKGLEWIASITYTGGGTYYPDSVKGRFTISRDDAKSSLYLQMNSLRAEDTAVYYCTRANYYYNTYGGFPYWGQGTLVTVSS VL: DIQMTQSPSSLSASVGDRVTITCLASEGFSNDLAWYQQKPGKSPKLLIYAASRLQDGVPSRFSGSGSGTDFTLTISSLQPEDFATYFCQQGSKYPLTFGGGTKVEIK | 0.154 nM | 3.11e-11 M
1E1v5 (antibody, human IgG1, V domains shown, Humanized 1E1 variant, human IgG1 backbone, expressed in Expi293F) VH: EVQLVESGGGLVQPGGSLRLSCAASGFTFNNYWMTWVRQAPGKGLEWVASITYTGGGTYYPDSVKGRFTISRDDAKSSLYLQMNSLRAEDTAVYYCTRANYYYNTYGGFPYWGQGTLVTVSS VL: DIQMTQSPSSLSASVGDRVTITCLASEGFSNDLAWYQQKPGKSPKLLIYAASRLQDGVPSRFSGSGSGTDFTLTISSLQPEDFATYFCQQGSKYPLTFGGGTKVEIK | 0.144 nM | –
1E1v9 (antibody, human IgG1, V domains shown, Humanized 1E1 variant, human IgG1 backbone, expressed in Expi293F) VH: EVQLVESGGGLVQPGGSLRLSCAASGFTFNNYWMTWIRQAPGKGLEWIASITYTGGGTYYPDSVKGRFTISRDDAKSSLYLQMNSLRAEDTAVYYCTRANYYYNTYGGFPYWGQGTLVTVSS VL: DIQMTQSPSSLSASVGDRVTITCLASEGFSNDLAWYQQKPGKAPKSLIYAASRLQDGVPSRFSGSGSGTDFTLTISSLQPEDFATYFCQQGSKYPLTFGGGTKVEIK | 0.129 nM | 3.05e-11 M
1E1v17 (antibody, human IgG1, V domains shown, Humanized 1E1 variant, human IgG1 backbone, expressed in Expi293F) VH: EVQLVESGGGLVQPGGSLRLSCAASGFTFNNYWMTWVRQAPGKGLEWVASITYTGGGTYYPDSVKGRFTISRDNAKSSLYLQMNSLRAEDTAVYYCTRANYYYNTYGGFPYWGQGTLVTVSS VL: DIQMTQSPSSLSASVGDRVTITCLASEGFSNDLAWFQQKPGKAPKSLIYAASRLQDGVPSRFSGSGSGTDFTLTISSLQPEDFATYFCQQGSKYPLTFGGGTKVEIK | 0.285 nM | –
1E1v6 (antibody, human IgG1, V domains shown, Humanized 1E1 variant, human IgG1 backbone, expressed in Expi293F) VH: EVQLVESGGGLVQPGGSLRLSCAASGFTFNNYWMTWVRQAPGKGLEWVASITYTGGGTYYPDSVKGRFTISRDDAKNSLYLQMNSLRAEDTAVYYCTRANYYYNTYGGFPYWGQGTLVTVSS VL: DIQMTQSPSSLSASVGDRVTITCLASEGFSNDLAWYQQKPGKSPKLLIYAASRLQDGVPSRFSGSGSGTDFTLTISSLQPEDFATYFCQQGSKYPLTFGGGTKVEIK | 0.132 nM | –
1E1v7 (antibody, human IgG1, V domains shown, Humanized 1E1 variant, human IgG1 backbone, expressed in Expi293F) VH: EVQLVESGGGLVQPGGSLRLSCAASGFTFNNYWMTWVRQAPGKGLEWVASITYTGGGTYYPDSVKGRFTISRDNAKSSLYLQMNSLRAEDTAVYYCTRANYYYNTYGGFPYWGQGTLVTVSS VL: DIQMTQSPSSLSASVGDRVTITCLASEGFSNDLAWYQQKPGKSPKLLIYAASRLQDGVPSRFSGSGSGTDFTLTISSLQPEDFATYFCQQGSKYPLTFGGGTKVEIK | 0.144 nM | –
1E1v2 (antibody, human IgG1, V domains shown, Humanized 1E1 variant, human IgG1 backbone, expressed in Expi293F) VH: EVQLVESGGGLVQPGGSLRLSCAASGFTFNNYWMTWIRQAPGKGLEWIASITYTGGGTYYPDSVKGRFTISRDDAKSSLYLQMNSLRAEDTAVYYCTRANYYYNTYGGFPYWGQGTLVTVSS VL: DIQMTQSPSSLSASVGDRVTITCLASEGFSNDLAWFQQKPGKAPKSLIYAASRLQDGVPSRFSGSGSGTDFTLTISSLQPEDFATYYCQQGSKYPLTFGGGTKVEIK | 0.203 nM | –
1E1v3 (antibody, human IgG1, V domains shown, Humanized 1E1 variant, human IgG1 backbone, expressed in Expi293F) VH: EVQLVESGGGLVQPGGSLRLSCAASGFTFNNYWMTWVRQAPGKGLEWVASITYTGGGTYYPDSVKGRFTISRDNAKNSLYLQMNSLRAEDTAVYYCTRANYYYNTYGGFPYWGQGTLVTVSS VL: DIQMTQSPSSLSASVGDRVTITCLASEGFSNDLAWYQQKPGKSPKLLIYAASRLQDGVPSRFSGSGSGTDFTLTISSLQPEDFATYFCQQGSKYPLTFGGGTKVEIK | 0.149 nM | –
1E1v22 (antibody, human IgG1, V domains shown, Humanized 1E1 variant, human IgG1 backbone, expressed in Expi293F) VH: EVQLVESGGGLVQPGGSLRLSCAASGFTFNNYWMTWVRQAPGKGLEWVASITYTGGGTYYPDSVKGRFTISRDNAKSSLYLQMNSLRAEDTAVYYCTRANYYYNTYGGFPYWGQGTLVTVSS VL: DIQMTQSPSSLSASVGDRVTITCLASEGFSNDLAWYQQKPGKAPKSLIYAASRLQDGVPSRFSGSGSGTDFTLTISSLQPEDFATYYCQQGSKYPLTFGGGTKVEIK | 0.146 nM | –

Further binders by falling Kd (human IL-33 (His-tagged)), results first:

Kd (human IL-33 (His-tagged)) | IC50 (M), IL-33 neutralization activity, HEK-BLUE IL-33 cells, human IL-33 at 160 pM (human IL-33) | Binder
0.295 nM | – | 1E1v1 (antibody, human IgG1, V domains shown, Humanized 1E1 variant, human IgG1 backbone, expressed in Expi293F) VH: EVQLVESGGGLVQPGGSLRLSCAASGFTFNNYWMTWVRQAPGKGLEWVASITYTGGGTYYPDSVKGRFTISRDNAKNSLYLQMNSLRAEDTAVYYCTRANYYYNTYGGFPYWGQGTLVTVSS VL: DIQMTQSPSSLSASVGDRVTITCLASEGFSNDLAWFQQKPGKAPKSLIYAASRLQDGVPSRFSGSGSGTDFTLTISSLQPEDFATYYCQQGSKYPLTFGGGTKVEIK
0.179 nM | – | 1E1v16 (antibody, human IgG1, V domains shown, Humanized 1E1 variant, human IgG1 backbone, expressed in Expi293F) VH: EVQLVESGGGLVQPGGSLRLSCAASGFTFNNYWMTWVRQAPGKGLEWVASITYTGGGTYYPDSVKGRFTISRDDAKNSLYLQMNSLRAEDTAVYYCTRANYYYNTYGGFPYWGQGTLVTVSS VL: DIQMTQSPSSLSASVGDRVTITCLASEGFSNDLAWFQQKPGKAPKSLIYAASRLQDGVPSRFSGSGSGTDFTLTISSLQPEDFATYFCQQGSKYPLTFGGGTKVEIK
0.172 nM | – | 1E1v18 (antibody, human IgG1, V domains shown, Humanized 1E1 variant, human IgG1 backbone, expressed in Expi293F) VH: EVQLVESGGGLVQPGGSLRLSCAASGFTFNNYWMTWVRQAPGKGLEWIASITYTGGGTYYPDSVKGRFTISRDDAKSSLYLQMNSLRAEDTAVYYCTRANYYYNTYGGFPYWGQGTLVTVSS VL: DIQMTQSPSSLSASVGDRVTITCLASEGFSNDLAWFQQKPGKAPKSLIYAASRLQDGVPSRFSGSGSGTDFTLTISSLQPEDFATYFCQQGSKYPLTFGGGTKVEIK
0.163 nM | – | 1E1v14 (antibody, human IgG1, V domains shown, Humanized 1E1 variant, human IgG1 backbone, expressed in Expi293F) VH: EVQLVESGGGLVQPGGSLRLSCAASGFTFNNYWMTWIRQAPGKGLEWIASITYTGGGTYYPDSVKGRFTISRDDAKSSLYLQMNSLRAEDTAVYYCTRANYYYNTYGGFPYWGQGTLVTVSS VL: DIQMTQSPSSLSASVGDRVTITCLASEGFSNDLAWFQQKPGKAPKSLIYAASRLQDGVPSRFSGSGSGTDFTLTISSLQPEDFATYFCQQGSKYPLTFGGGTKVEIK
0.163 nM | 2.44e-11 M | 1E1v12 (antibody, human IgG1, V domains shown, Humanized 1E1 variant, human IgG1 backbone, expressed in Expi293F) VH: EVQLVESGGGLVQPGGSLRLSCAASGFTFNNYWMTWVRQAPGKGLEWVASITYTGGGTYYPDSVKGRFTISRDNAKSSLYLQMNSLRAEDTAVYYCTRANYYYNTYGGFPYWGQGTLVTVSS VL: DIQMTQSPSSLSASVGDRVTITCLASEGFSNDLAWYQQKPGKAPKSLIYAASRLQDGVPSRFSGSGSGTDFTLTISSLQPEDFATYFCQQGSKYPLTFGGGTKVEIK
0.151 nM | – | 1E1v23 (antibody, human IgG1, V domains shown, Humanized 1E1 variant, human IgG1 backbone, expressed in Expi293F) VH: EVQLVESGGGLVQPGGSLRLSCAASGFTFNNYWMTWVRQAPGKGLEWIASITYTGGGTYYPDSVKGRFTISRDDAKSSLYLQMNSLRAEDTAVYYCTRANYYYNTYGGFPYWGQGTLVTVSS VL: DIQMTQSPSSLSASVGDRVTITCLASEGFSNDLAWYQQKPGKAPKSLIYAASRLQDGVPSRFSGSGSGTDFTLTISSLQPEDFATYYCQQGSKYPLTFGGGTKVEIK
0.123 nM | – | 1E1v11 (antibody, human IgG1, V domains shown, Humanized 1E1 variant, human IgG1 backbone, expressed in Expi293F) VH: EVQLVESGGGLVQPGGSLRLSCAASGFTFNNYWMTWVRQAPGKGLEWVASITYTGGGTYYPDSVKGRFTISRDDAKNSLYLQMNSLRAEDTAVYYCTRANYYYNTYGGFPYWGQGTLVTVSS VL: DIQMTQSPSSLSASVGDRVTITCLASEGFSNDLAWYQQKPGKAPKSLIYAASRLQDGVPSRFSGSGSGTDFTLTISSLQPEDFATYFCQQGSKYPLTFGGGTKVEIK
0.118 nM | 3.11e-11 M | 1E1v8 (human IgG1) (antibody, V domains shown) VH: EVQLVESGGGLVQPGGSLRLSCAASGFTFNNYWMTWIRQAPGKGLEWVASITYTGGGTYYPDSVKGRFTISRDDAKSSLYLQMNSLRAEDTAVYYCTRANYYYNTYGGFPYWGQGTLVTVSS VL: DIQMTQSPSSLSASVGDRVTITCLASEGFSNDLAWYQQKPGKSPKLLIYAASRLQDGVPSRFSGSGSGTDFTLTISSLQPEDFATYFCQQGSKYPLTFGGGTKVEIK
